In patent publication US20180245058:

How the values were obtained:
Assay in all cases: cell_activity
[1] = target: CCR5 ZFN with wild-type ZC linker (SBS #8266) (artificial) (UniProt P14870); details: average of 2; ZFN pair
[2] = tested on: CCR5 ZFN with L6a linker (artificial); details: average of 2; ZFN pair
[3] = tested on: CCR5 ZFN with L7a linker (artificial); details: ZFN pair
[4] = tested on: mROSA-targeted ZFN pair, Wt/L7a linkers (artificial); details: Neuro2A, CEL-I; mock 0.4
[5] = tested on: mROSA-targeted ZFN pair, Wt/Wt linkers (artificial); details: Neuro2A, CEL-I; repeats 23.2 and 18.7; mock 0.4
[6] = tested on: rat IgM-targeted ZFN pair including L7a linker (artificial); details: rat C6 cells, CEL-I
[7] = tested on: rat IgM-targeted ZFN pair, ZC linkers (artificial); details: rat C6 cells, CEL-I

Sequence of CCR5 ZFN with L7a linker (artificial) (chain, as listed by the source): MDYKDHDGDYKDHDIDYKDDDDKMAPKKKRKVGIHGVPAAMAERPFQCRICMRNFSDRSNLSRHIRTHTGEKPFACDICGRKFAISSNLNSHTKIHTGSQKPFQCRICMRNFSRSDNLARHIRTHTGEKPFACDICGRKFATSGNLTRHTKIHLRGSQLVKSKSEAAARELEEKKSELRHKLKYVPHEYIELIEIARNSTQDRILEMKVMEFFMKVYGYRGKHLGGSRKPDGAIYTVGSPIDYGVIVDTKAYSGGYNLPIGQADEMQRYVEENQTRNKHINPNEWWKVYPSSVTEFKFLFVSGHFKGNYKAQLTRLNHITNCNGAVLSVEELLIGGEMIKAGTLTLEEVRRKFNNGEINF
Sequence of CCR5 ZFN with wild-type ZC linker (SBS #8266) (artificial) (P14870 other isoform, or with tags, fused parts or gaps): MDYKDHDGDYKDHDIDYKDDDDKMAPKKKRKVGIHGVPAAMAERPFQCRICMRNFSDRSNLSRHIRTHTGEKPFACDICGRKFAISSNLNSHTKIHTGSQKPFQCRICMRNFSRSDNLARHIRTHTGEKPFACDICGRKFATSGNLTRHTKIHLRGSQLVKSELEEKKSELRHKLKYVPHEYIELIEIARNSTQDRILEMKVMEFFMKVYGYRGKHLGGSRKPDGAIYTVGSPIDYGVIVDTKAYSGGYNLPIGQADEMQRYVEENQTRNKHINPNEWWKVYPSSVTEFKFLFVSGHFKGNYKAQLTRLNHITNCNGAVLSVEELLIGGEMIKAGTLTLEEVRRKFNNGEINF
Sequence of CCR5 ZFN with L6a linker (artificial) (chain, as listed by the source): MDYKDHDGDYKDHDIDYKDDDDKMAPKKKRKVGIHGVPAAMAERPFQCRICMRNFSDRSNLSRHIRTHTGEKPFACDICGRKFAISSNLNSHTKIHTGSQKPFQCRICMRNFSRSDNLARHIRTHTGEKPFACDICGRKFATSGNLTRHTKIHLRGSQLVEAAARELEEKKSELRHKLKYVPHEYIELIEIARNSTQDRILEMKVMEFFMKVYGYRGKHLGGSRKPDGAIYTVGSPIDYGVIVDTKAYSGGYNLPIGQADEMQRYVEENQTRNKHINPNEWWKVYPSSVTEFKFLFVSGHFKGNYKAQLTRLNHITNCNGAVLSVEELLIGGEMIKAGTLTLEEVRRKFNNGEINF

Work on CCR5 ZFN target, 4 bp gap yielded an activity [1] of 1.2 % NHEJ.
Work on CCR5 ZFN target, 5 bp gap yielded an activity [2] of 39.3 % NHEJ and an activity [1] of 35 % NHEJ.
CCR5 ZFN target, 6 bp gap showed an activity [2] of 25.4 % NHEJ, an activity ([3]; average of 2) of 31.8 % NHEJ and an activity [1] of 11.1 % NHEJ.
With CCR5 ZFN target, 7 bp gap the activity [2] was 5.1 % NHEJ and the activity ([3]; average of 2) was 39.6 % NHEJ.
CCR5 ZFN target, 8 bp gap was tested, and the activity ([3]; average of 2 as printed) was 6.1 % NHEJ.
mROSA target, 6 bp gap was tested, and the activity [4] was 7.5 % NHEJ and the activity [5] was 22.6 % NHEJ.
rat IgM target, 6 bp gap showed an activity [6] of 2.43 % NHEJ and an activity [7] of 1.93 % NHEJ.
